Patent US20140004580A1, “MODIFIED PHOTOSYNTHETIC MICROORGANISMS FOR PRODUCING LIPIDS” (Matrix Genetics, LLC, priority 2010, published 2014)

Key:
Format in all cases: biochemical, Synechococcus elongatus PCC7942
[1] = test system: purified h6-orf0489; assay: orf0489 aldehyde dehydrogenase activity assay with nonyl-aldehyde (NAD(P)H production at 340 nm); details: nonyl-aldehyde 1 mM; h6-orf0489 0.3, 1.5 or 6 μM; NAD+ or NAD(P)+ 1 mM; 30 minutes
Experimental: The reaction was started by mixing together a fatty aldehyde substrate, purified h6-orf0489 and NAD(P)+. The progress of the reaction was assessed by measuring the production of NAD(P)H at 340 nm using the SpectraMax M5. […] Nonyl-aldehyde and either NAD+ or NAD(P)+ were used at 1 mM. Measurements were taken every 30 seconds for 30 minutes.
To directly test whether orf0489 is an aldehyde dehydrogenase, a histidine-tagged version of this protein (h6-orf0489) was overexpressed in E. coli and purified using metal affinity chromatography. The purified protein was then employed in an in vitro reaction using a fatty aldehyde as a substrate.
The reaction was started by mixing together a fatty aldehyde substrate (nonyl-aldehyde at 1 mM), various concentrations of purified h6-orf0489 (0.3, 1.5 or 6 μM final concentration), and NAD+ or NAD(P)+ at 1 mM. The progress of the reaction was assessed by measuring the production of NAD(P)H at 340 nm using the SpectraMax M5; measurements were taken every 30 seconds for 30 minutes.

[2] = target: h6-0489 (histidine-tagged orf0489 aldehyde dehydrogenase) (Synechococcus elongatus, UniProt Q31QZ8); assay: Enzymatic characterization of h6-0489 with fatty aldehydes of varying chain length (NADH production at 340 nm)
Experimental: (§1) The protein eluted off of SEC as a single monodisperse peak. The enzymatic characteristics of purified protein were then measured in vitro using fatty aldehydes of varying chain length (4-16) as substrate. In this assay, h6-0489 was incubated with 150 mM NaCl, 50 mM Tris, pH 7.5, 0.05% IGEPAL, 1 mM NAD+ and varying concentrations of the fatty aldehyde substrate being tested. The reaction was carried out in a cuvette with a 1 cm pathlength, and the progress was assessed by measuring the production of NADH at 340 nm using a SpectraMax M5 spectrophotometer. Measurements were taken every second for 2-5 minutes, and the initial velocities of each reaction were determined in the linear range. The A340 was converted into amount of NADH formed using the molar extinction coefficient for NADH (6200 M^−1 cm^−1). The Michaelis constants Km and Vmax were determined by fitting the data using non-linear progression in Prism to the equation Y=(Vmax*X)/(Km+X), where X=substrate concentration and Y=velocity. Kcat was determined from the equation Vmax=Kcat*Et, where Et=the concentration of h6-0489. Data are presented in Table C as averages of at least three different experiments, with errors presented as standard deviation.

[3] = substrate: CCCC=O; assay: as above; details: other: aldehyde as substrate, 1 mM NAD+, pH 7.5, average of at least three experiments
Experimental: as §1

[4] = substrate: CCCCCC=O; assay: as above; details: other: aldehyde as substrate, 1 mM NAD+, pH 7.5, average of at least three experiments
Experimental: as §1

[5] = substrate: CCCCCCCC=O; assay: as above; details: other: aldehyde as substrate, 1 mM NAD+, pH 7.5, average of at least three experiments
Experimental: as §1

[6] = substrate: CCCCCCCCCC=O; assay: as above; details: other: aldehyde as substrate, 1 mM NAD+, pH 7.5, average of at least three experiments
Experimental: as §1

[7] = substrate: CCCCCCCCCCCC=O; assay: as above; details: other: aldehyde as substrate, 1 mM NAD+, pH 7.5, average of at least three experiments
Experimental: as §1

How did the “utilization as substrate (increased NAD(P)H production relative to controls)” value [1] turn out when CCCCCCCCC=O [nonyl-aldehyde] was run?
The value was “utilizes nonyl-aldehyde as a substrate”.

For hexadecenal, which “kcat (AVE)” value ([2]; aldehyde as substrate, 1 mM NAD+, 150 mM NaCl, 50 mM Tris pH 7.5, 0.05% IGEPAL, average of at least three experiments) is on record?
Its value is 10.8 s⁻¹.

And the Km ([2]; aldehyde as substrate, 1 mM NAD+, pH 7.5, average of at least three experiments, read-out: (μM) (AVE) [Km])?
Its Km is 38.1 µM.

And the “oxidation of the aldehyde to a free fatty acid by h6-0489 in vitro” value ([2]; in vitro)?
Its value is “able to oxidize hexadecenal to a free fatty acid”.

B1: h6-0489 (histidine-tagged orf0489 aldehyde dehydrogenase) (Synechococcus elongatus PCC 7942 = FACHB-805) (protein)
chain: MTAVVLPAAAETLAALQATFDRGDTRTLAFRLARLQDLAKLVADNEAELLQALASDLRKPALEAYASEIYFVRDQIKLTCKHLRRWMQPEKQSISLMQQPGQAYRQAEPLGVVLIIGPWNYPFQLLITPLIGAIAAGNCAVLKPSELAPATSSLIQRLISDRFDPDYIRVLEGDASVSQALITQPFDHIFFTGGTAIGRKVMAAAAENLTPVTLELGGKSPCIVDTDIDLDVAARRIAWGKFFNAGQTCIAPDYLLVQRTVAEPFIEALIDNIQQFYGEDPQQSADYARIVSDRHWQRLNSLLVDGTIRHGGQVDRSDRYIAPTLITDVNWRDPILQEEIFGPLLPILIYDQLDEAIAQIRAQPKPLALYLFSRDRQVQERVLAETSAGSVCLNDTILQVGVPDAAFGGVGPSGMGGYHGKASFETFSHYKLVLKRPFWLDLALRYPPYGDKINLFRKL
For B1, which Km [3] is on record?
The Km was 189.4 µM.

What about the kcat [3] of the same molecule?
The kcat was 7.65 s⁻¹.

What about the kcat/Km [3] of the same molecule?
The kcat/Km was 40000 M⁻¹ s⁻¹.

What about the Km [4] of the same molecule?
Its Km is 19.3 µM.

And the kcat [4]?
The kcat was 8.51 s⁻¹.

What about the kcat/Km [4] of the same molecule?
Its kcat/Km is 442000 M⁻¹ s⁻¹.

And the Km [5]?
Its Km is 15.4 µM.

And the kcat [5]?
Its kcat is 13.5 s⁻¹.

And the kcat/Km [5]?
Its kcat/Km is 875000 M⁻¹ s⁻¹.

And the Km [6]?
The Km was 7.6 µM.

And the kcat [6]?
Its kcat is 12.1 s⁻¹.

And the kcat/Km [6]?
Its kcat/Km is 1.59e+06 M⁻¹ s⁻¹.

And the Km [7]?
The Km was 11.4 µM.

And the kcat [7]?
The kcat was 9.29 s⁻¹.

What about the kcat/Km [7] of the same molecule?
Its kcat/Km is 818000 M⁻¹ s⁻¹.
